Experiment: yeast display, Sf9 membrane polyspecificity reagent, FACS + sequencing; frameworks hold sequencing errors
Method in brief: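 In a synthetic yeast display library (Saccharomyces cerevisiae BJ5465), nanobody expression was induced with galactose for 36–48 hours. FACS gates were set low and high (top ~1%) using anti-HA fluorescence for expression and streptavidin fluorescence for binding of the Sf9 membrane reagent. Each polyreactivity label is drawn from the gate of origin.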

Row | Sequence | polyreactivity (PSR sort gate)
1 | QVQLVESGGGLVQAGGSLRLSCAASGSTFSRYAMGWYRQAPGKDRELVAAINRSGGSTYYADSVKGRFTISRDNAKNTVYLQMNSLKPEDTAVYYCNKYTGYLHDYWGQGTQVTVSS | high polyreactivity
2 | QVQLVDSGGGLVQAGGSLRLSCAASGITLYRYVMRWYRQAPGKESELVADISGRGTSTYYADSVKGPFTISRDNAKNTVYLQMNSLKPEDTAVYYCNAEYTKTGALVIPYTYYYAEDYWGQGTQVTVSS | low polyreactivity
3 | QVQLVESGGGLVQAGGSLRLSCAASGRIFVRYAMGWYRQAPGKERELVASIRSGGSTNYADSVKGRFTISRDNAKNTVYLQMNSLKPEDTAVYYCAAVLRPVRFYSGYYYWGQGTQVTVSS | high polyreactivity
4 | QVQLVESGGGLVQAGGSLRLSCAASGSIFPHNAMGWYRQAPGKERALVASITSRGGITYYADSVKGRFTISRDNAKNTVYLQMNSLKPEDTAVYYCNGVLYHYSPTDSWITYDYWGQGTQVTVSS | low polyreactivity
5 | QVQLVDSGGGLVQAGGSLRLSCAASGSTFYFYAMGWYRQAPGKQRELVAAITWTDGDTYYADSVKGRFTISRDIAKNTVYLQMNSLKPEDTAVYYCATDSFWYEYDYWGQGTQVTVSS | high polyreactivity
6 | QVQLVESGGGLGQAGGSLRLSCAASGRILYIYVMGRYRQARGKERELVAALTWDDGDTYYADSVKGRFTISRDNAKITVYLQMNSLKPEDTAVYNCNAGGQGVATITGHTPEFDYWGQGTQVTVSS | low polyreactivity
7 | QVQLVESGGGLVQAGGSLRLSCAASGLIFSTYYMGWYRQAPRKERELVAAISTGGSTYCADSVKGRFTISRDNAKNTVYLQMNSLKPEDTAVYYCAAGYTYHSWPLYYWDYNYWGQGTQVTVSS | low polyreactivity
8 | QVQLVESGGGLVQAGGSLRLSCAASGFIFGLYDMGWYRQAPGKERELVAAISWSGGSTYYADSVKGRFTISRDNAKNTVYLQMNSLKPQDTAFYYCAAKHVGWYVQEEDYWGQGSQVTVSS | low polyreactivity
9 | QVQLVESGGGLVQAGGSRRLSCAASGRTFQYYAMGCYRQATGKERELVAAINNSGGSTYYSDSVKGRFTISRDNAKNTFYLQMNSLKQEDTAVYYCAAVSYRRHFGPYNYWGQGTQVTVSS | low polyreactivity
10 | QVQLVESGGGLVQAGGSLRLSCAASGRTFGPNGMGWYRQAPGKERELLAVITSSGGRTYYADSVKGRFTISRDNAKNTVYLQMNSLKPEDTAVYYCAADAKKFGGTKNAELDYWGQGTQVTVSS | low polyreactivity
11 | QVQLVESGGGLVQAGGSLRLSCAASGSIFTPNAMGWYRQAPGKERELVAAISSSSDRTYYADSVKGRFTISRDNAKNTVYLQLNSLKPEDTAVYYCAAYAQKRYYWGQGTQVTVSS | high polyreactivity
12 | QVQLVESGGGLVQAGGSLRLSCAASGSIFRDYAMGWYRQAPGKERELVAAITWSGGRTYYADSVKGRFTISRDNAKNTVYLQMNSLKPEDTAVYYCAARSTRQYEYDYWGQGTQVTVSS | low polyreactivity
13 | QVQLVESGGGLVQAGGSLRLSCAASGRTFYSYAMGWYRQAPGKERELVAAISYTGASTFYADSVKGRFTISRDKSKNTVYLQMNSLKPEDTAVYYCADRKVRFGVDYWGQGTQVTVSS | high polyreactivity
14 | QVQLVESGGGLVQAGGSLRLSCAASGRTCYSYAMGWYRQAPGKVRALVAAITSSGSTNADSVKGRFTISRDNAKNTDYLQMNSLKPEDTAVYYCATRSYILGWRYDYWGQGTQVTVSS | high polyreactivity
15 | QVQLVESGGGLVQSVGSLRLSCAASGRSFWINTMGWYRQAPGKERELLAAITSGGSTKYADSVKGRFTISRDNAKNTVYFQMNSLKPEDCAVYYCARRFRPNDVWPSHRGYGYWGQGTQVSVSS | low polyreactivity
16 | QVQLVESGGGLVQAGGRLRLSCAASGSTFSLNTMGWYRQAPGKERELFAAIRWRSGSTYYADSVKGRFTISRDNAKNTVYLHKNRLKPEDNAVYYCAVTARVTFLLRDGGRAEFDYWGQGTQVTVSS | low polyreactivity
17 | QVQLVESGRGLVQAGGSLRLSCAASGFTFGVNAMGWYRQAPGKERELVAAITRSGGTTYYADSVKGRFTISRDNAKNTVYLQMNSLKPEDTAVYYCNRRARSYADDYWGQGTQVTVSS | high polyreactivity
18 | QVQLVESGGGLVQAGGSLRLICAASGRIFHYYMGWYRQAPGKEMELVAVISSGDGTYYADSVKGRFTISRDNAKYTFYLQMNSLKPEDTAVYYWAADAPREYDDHYKYDDDYCGQGTQVTVSS | low polyreactivity
19 | HVNLVESGGGLVKAGGSLRLTCDASGITFYEYAMGRYRRAPGKELELVAGIRLSGSTTYYADSVKGRFTISRDNSKNTVYLQMHSLKPEDTAVYYCNVDYYSGLYDYDSWGQGTQVTVSS | low polyreactivity
20 | QVQVVESGGGLLQAGGSLRLSCASSGSTFQYNAMGRYRPAPRKERELVAVITRRGGRTYYADSVKGRFTISRDNAKNTVYLQMNSLKPEDTAVYYCAAYYDYTHRFYYWGQGTQVTVSS | high polyreactivity
21 | QVQLVESGGGLVQAGGSLRLSCAASGITFDENTMGWYRQGPGKERELVAAITEIGGSTYYADSVKGRFTISRDNAKNTVYLQMHSLKPEDTAVYYCNAARWVGRFVDYEYWGQGTQVTVSS | low polyreactivity
22 | QVQLVESGGGLVQAGGSLRLICAASGSIFPSYAMGWYRQAPGKERELVAAISVSGGRTYYADSVKGRFTISRDNAKYSVYLQMNSLKPEDTAVYYCATVGKQKYDAKYGYWGQGTQVTVSS | high polyreactivity

Row | Sequence | polyreactivity (PSR sort gate)
23 | QVQPVESGGGLVQAGGSLRLSCAASASTFYYYAMGWSRQAPGKERELVASITTGGGSTYYADSVKGRFTISRDNAKKTVYLQMNSLNPEDTAVYYCNAGRYGSNLEYWGQGTQVTVSS | low polyreactivity
24 | QVQLVESGGGLVQGGGSLRLSCAASGRIFDYYTMGWYRPAPGKERELVAAISSGGSTNYADYVKGRFTISRDNAKNTVYLQMNSLKPEDTAVYYCNVDLTTVGHWYYYRPGYDYWEQGTQVTVSS | low polyreactivity
25 | QVQLVESGGGLVQAGGSLRLSCAASGSTFWYYAMGWYRQAPGKERELVAAITSSGSTYYADSVKGRFTISRDNAKNTVYLQMYSLKPEDTAVYYCAAEQWYGYASYDYWGQGTQVTVSS | high polyreactivity
26 | QVQLVESGGGLVQAGGSLRLSCAAYGSTFTRYTMGWYRQAPGKDRELVASSTRTGSTNYADSVKGRFTISRDNAKNTVYLQMYSLKPEDTAVYYCAGGRYYSYRFSFGYWGQGTQVTVSS | high polyreactivity
27 | QVQLVESGGGLVQAGGSLRLICAASAITFYDYTMGWYRQAPGKERELVAAISRSGGSTYYADSVKGRFTISRDNAKNTVYLQMNSLKPEETAFYYCADYTHYQPEYDYWGQGTQVTVSS | high polyreactivity
28 | QVQLVESGGGLVQAGGSLRLSCAASGSTFWPYTMGWYRQAPGKERELVAAITLRGGTTYYADSVKGRFTISRDNEKNTVYLQMNSLKPEDTAVYYCAADVAYVEYDYWGQGTQVTVSS | low polyreactivity
29 | QVQLVESGGGLVQAGGSLRLSCAASGGIFAYNAMGWYRQAPGKERELVATISSGVSTNYADSVKGRFTISRDNAKNTVYLPMNSLKPEDTAVYDCAAAIFITGYGSYGYWGQGTQVTVSS | low polyreactivity
30 | QVQLVESGGGLVQAGGSLRLSCAASGYIFKNYAMGWYRQAPGKERELVAAITRRGASTYYADSVKGRFTITRDNAKNTVYLQMNSLKPEDTAVYYCAAYPWPPGEYDYWGQGTQVTVSS | low polyreactivity
31 | QDQLVESGGGLVQAGGSLLLSCAASGGIFRFKAMGWYRQARGKERELVAAIIRGGSTYYADSVKGRFTISRDNAKNTVYLQMISLKPEDTAVYDCAADYEYRTKTRDGYYCGQGTQVTVSS | low polyreactivity
32 | QVQLVESGGGLVQAGGSLRLSCAASGRTFAPYTMGWYRQAPGKERELVAAINFNGGGTYYADSVKGRFTISRDNAKNTVYLQMNSLKPEDTAVYYCYYLYNYWGQGTQVTVSS | low polyreactivity
33 | QVQLVESGGGLVQAGGSLRLSCAASGRTFVRNAKGWYRQAPGKERELVAAITSGGSTYYADSVKGRFTISRDNAKNTVYLQMNSLKPEDTAVYYCAAISTWGTKYDYWGQGTQVTVSS | high polyreactivity
34 | QVQLVESGGGLDQAGGSLRLICASSGRTFYPNAMGWYRQAPGKEREFVAAITWSGGGTFYADSVKGRFTISRDHAKNTVYLQMLSLNPEDTAVYYCAARLDTYQTQSVITPAALYYWGQGTQETVSS | low polyreactivity
35 | QVQLHESGGGLVQAGGSLRLSCAASGTISYAGPRGWYRQAPGKERECVAGIGVGSNTNYADSVKGRYTIIRDNAKNTVYLQMNILKPEVTAVYYCAVGGYAPLGRPYWGQGTQVTVSS | low polyreactivity
36 | QVQLVESRGGLVQAGGSLRLSCAASGSTFLNYAMGWYRQAPGKERELVAAISGSTTRTYYAESVKGRFTISRDNAKNTVYLQMNSLKPEDTAVYYCAATRGRGGRDDYWGQGSQVTVSS | high polyreactivity
37 | QVQLVESGGGLVQAGGSLRLSCAASGFTFNPNAMGWYRQAPGKERELVAAITWSSGRTYYADSVKGRFTISRDNAKNTVYLQMNSLKPEDTAVYYCAARGYSYNYDYWGQGTQVTVSS | high polyreactivity
38 | QVQLVESGGGLVQAGGSLRLSCAASGITFPWYAMGWYRQAPGKERELVASKTSGASTNYADSVKGRFTISRDNAKNTVYLQMNSLKPEYSAVYYCARDWYSPVYWAAGYDAWGSGYDYWGQGTQVTVSS | high polyreactivity
39 | QVQLVESGGGLVQAGGSLRLSCAASGFIFSRYVMGWYRQAPGKERELVAVISYRGGSTYYADSVKGRFTISRDNAKNTVYVQMNSLKPEDTAVYYCNADTIPDGEDRYDYWGHGTQVTVSS | low polyreactivity
40 | QVQLVESGGGLVQAGGSLRLSCAASGINFYSYAMGWYRQAPAKERELVAAITLTVGTTYYADSVKGRFTISRDIEKNTVSLKMNSVKREDTACYYCAAQYWWWSRFEYESWGQGTQVTVSS | low polyreactivity
41 | QVHLVDSGGGIVQAGGSLRLSCAATGRISGVYAMVWYRQAPGKERELVAAISWSGGRTYYADSVKGRFTISRDNAKNTVYLQMNSLKPEDTAVYYCNADTGFRSYRRDYWGQGTQVTVSS | low polyreactivity
42 | QVLLVESGGCLVQAGGILRLSCAASGIIFRSNVMGWYRQEPGKASELVAAISTGGGRTYYADSVKGRFTISRDNAKNTVYLQMNSLKPEDTAVYYCATRDIGKQWTRYYYWGQGTQVTVSS | high polyreactivity
43 | QVQLVESGGGLVQAGGSLRLSCAASGSSGYFYALGWSRPAPGKERELVADMDWSGDSTYYADSVKGRFTISRDNAKTTVYLQMNSLKPEDTAVYYCNAAYDYYSPSYTYDYWGQGTQVTVSS | low polyreactivity
